Square brackets hold non-standard residues; d marks the D form. Ends that are not written are not given here. * marks the point of attachment. 5FAM = O=C1OC2(c3ccc(O)cc3Oc3cc(O)ccc32)c2ccc(C(=O)*)cc21; pY = N[C@@H](Cc1ccc(OP(=O)(O)O)cc1)C(=O)O

Holding throughout (test): fluorescence polarisation; SH2 domain titrated into 5-FAM-labelled peptide (20 nM CD28, YSLV, pYSLV; 40 nM YSLM, pYSLM), 298 K, 96-well plates, single site binding isotherm
Holding throughout (conditions): both partners purified
In general terms: In fluorescence polarisation assays a small probe gives low polarisation when free and higher when bound to something large.

The target in assay [1] is T1, p85β nSH2 (312–425) (mouse, UniProt O08908 312-425).
T1 construct: PI3K regulatory subunit p85β, mouse, N-terminal SH2 domain, residues 312-425; also called nSH2 domain of p85β; WT nSH2 domain of p85β; source: E. coli, purified (Ni-NTA, HRV 3C cleavage, size exclusion); not shown: His6, N-terminal, cleaved; MBP, N-terminal, cleaved

For assay [2], the target named is T2, p85α nSH2 R358M (human, UniProt P27986 325-430, R358M).
T2 construct: PI3K regulatory subunit p85α, human, N-terminal SH2 domain, residues 325-430, with R358M; also called R358M variant; R358M SH2–null mutant; source: E. coli, purified

In assay [3] the target is T3, p85α cSH2 (614–720) (human, UniProt P27986 614-720).
T3 construct: PI3K regulatory subunit p85α, human, C-terminal SH2 domain, residues 614-720; also called cSH2 domain of p85α; source: E. coli, purified (glutathione-agarose, HRV 3C cleavage, S75 size exclusion)

Assay [4] addresses T4, p85α nSH2 (325–430) (human, UniProt P27986 325-430).
T4 construct: PI3K regulatory subunit p85α, human, N-terminal SH2 domain, residues 325-430; also called nSH2 domain of p85α; WT nSH2 domain of p85α; source: E. coli, purified (glutathione-agarose, HRV 3C cleavage, S75 size exclusion)

In assay [5] the target is T5, p85β cSH2 (603–712) (mouse, UniProt O08908 603-712).
T5 construct: PI3K regulatory subunit p85β, mouse, C-terminal SH2 domain, residues 603-712; also called cSH2 domain of p85β; source: E. coli, purified (glutathione-agarose, HRV 3C cleavage, S75 size exclusion)
T5 sequence (looked up): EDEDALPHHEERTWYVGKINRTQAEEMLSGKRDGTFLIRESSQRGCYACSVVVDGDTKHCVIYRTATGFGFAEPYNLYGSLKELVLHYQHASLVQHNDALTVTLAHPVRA

T3 sequence (P27986 614-720): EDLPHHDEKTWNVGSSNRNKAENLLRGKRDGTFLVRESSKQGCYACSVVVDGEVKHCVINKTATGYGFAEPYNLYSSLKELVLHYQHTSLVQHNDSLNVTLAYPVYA
T1 sequence (O08908 312-425): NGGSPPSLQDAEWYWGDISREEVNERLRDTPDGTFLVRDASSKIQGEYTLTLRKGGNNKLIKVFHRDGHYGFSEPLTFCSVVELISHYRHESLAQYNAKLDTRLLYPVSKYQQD
T4 sequence (P27986 325-430): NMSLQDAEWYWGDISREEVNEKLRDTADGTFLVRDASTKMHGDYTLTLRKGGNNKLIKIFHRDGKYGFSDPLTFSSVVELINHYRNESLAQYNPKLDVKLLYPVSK
T2 sequence (P27986 325-430 R358M): as the sequence (P27986 325-430) above, with R34M counted along it

B1: [5-FAM]-TEDQ-[pY]-SLMEDE, phosphorylated peptide based on p85β (peptide)
peptide: 5FAM-TEDQ[pY]SLMEDE
notes: also called β peptide; p85β (pYSLM) peptide; source: synthetic peptide; bought: Cambridge Research Biochemicals
Consider B1, for which the Kd came out at 0.052 µM in assay [1], 2900 nM in assay [2], 656 nM in assay [3] and 82 nM in assay [4].

B2: [5-FAM]-TEDQ-[pY]-SLVEDE, phosphorylated peptide based on p85α (peptide)
peptide: 5FAM-TEDQ[pY]SLVEDE
notes: also called α peptide; p85α (pYSLV) peptide; source: synthetic peptide; bought: Biomatik
On to B2, for which the Kd in assay [1] amounted to 9 µM; in assay [3], 84000 nM; in assay [4], 2400 nM.

B3: [5-FAM]-SD-[pY]-MNMTP, CD28 peptide (peptide)
peptide: 5FAM-SD[pY]MNMTP
notes: Known p85 SH2 target peptide from CD28; also called control peptide from CD28; source: synthetic peptide; bought: Biomatik
Consider B3, for which the Kd in assay [3] was 43 nM; in assay [5], 100 nM.

One may read the Kd as the concentration at which binding is half-saturated. High values mean weaker binding, low ones tighter binding.

For the origin of these results see article PMC9127371, “Assembly of nuclear dimers of PI3K regulatory subunits is regulated by the Cdc42-activated tyrosine kinase ACK” (The Journal of Biological Chemistry, 2022).
